T1: activin A (human, UniProt P08476 311-426)
T1 sequence (looked up): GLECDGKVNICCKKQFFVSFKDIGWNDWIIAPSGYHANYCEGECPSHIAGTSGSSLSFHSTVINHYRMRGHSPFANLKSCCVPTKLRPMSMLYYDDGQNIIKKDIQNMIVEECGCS

T2: GDF11 (human, UniProt O95390 299-407)
T2 construct: source: generated in house
T2 sequence (looked up): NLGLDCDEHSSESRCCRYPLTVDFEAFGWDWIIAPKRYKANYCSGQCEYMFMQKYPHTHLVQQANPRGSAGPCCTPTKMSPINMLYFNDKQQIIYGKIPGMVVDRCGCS

T3: BMP7 (human, UniProt P18075 293-431)
T3 construct: source: bought: R&D Systems
T3 sequence (looked up): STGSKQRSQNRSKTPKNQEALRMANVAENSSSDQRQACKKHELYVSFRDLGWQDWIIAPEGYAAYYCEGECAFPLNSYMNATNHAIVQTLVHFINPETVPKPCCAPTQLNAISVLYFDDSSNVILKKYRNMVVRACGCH

T4: growth differentiation factor 8 (GDF8, or myostatin) (human, UniProt O14793 267-375)
T4 sequence (looked up): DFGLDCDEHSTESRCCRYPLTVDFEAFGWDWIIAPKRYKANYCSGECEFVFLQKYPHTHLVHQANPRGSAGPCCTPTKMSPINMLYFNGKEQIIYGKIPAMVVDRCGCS

T5: BMP10 (human, UniProt O95393 317-424)
T5 sequence (looked up): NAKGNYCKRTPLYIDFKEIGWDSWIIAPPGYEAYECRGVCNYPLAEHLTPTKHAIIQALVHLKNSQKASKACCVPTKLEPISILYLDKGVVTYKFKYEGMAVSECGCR

T6: activin B (human, UniProt P09529 293-407)
T6 sequence (looked up): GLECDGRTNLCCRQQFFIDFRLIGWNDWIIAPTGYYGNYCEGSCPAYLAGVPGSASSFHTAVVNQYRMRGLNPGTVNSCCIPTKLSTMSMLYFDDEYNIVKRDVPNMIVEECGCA

T7: BMP9 (human, UniProt Q9UK05 320-429)
T7 sequence (looked up): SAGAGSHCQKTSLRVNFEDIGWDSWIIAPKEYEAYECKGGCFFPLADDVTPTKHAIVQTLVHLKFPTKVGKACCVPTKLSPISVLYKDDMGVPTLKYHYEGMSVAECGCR

T8: BMP6 (human, UniProt P22004 375-513)
T8 construct: source: bought: R&D Systems
T8 sequence (looked up): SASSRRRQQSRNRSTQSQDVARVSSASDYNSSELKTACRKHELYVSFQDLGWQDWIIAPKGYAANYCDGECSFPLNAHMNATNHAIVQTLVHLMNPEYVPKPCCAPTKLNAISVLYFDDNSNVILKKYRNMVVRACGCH

B1: ALK4-Fc:ALK4-Fc homodimer (R&D Systems Cat #808-AR-100) (Fc fusion, human, UniProt P36896-1 24-126, looked up)
chain: SGPRGVQALLCACTSCLQANYTCETDGACMVSIFNLDGMEHHVRTCIPKVELVPAGKPFYCLSSEDLRNTHCCYTDYCNRIDLRVPSGHLKEPEHPSMWGPVE
notes: activin receptor-like kinase 4 (ALK4) extracellular domain, human; Bought product; source: bought: R&D Systems (Cat #808-AR-100); not shown: Fc (human)
B2: IIB-Fc:IIB-Fc homodimer (human ActRIIB ECD fused to human IgG1 Fc) (Fc fusion, UniProt Q13705-1 19-134, looked up)
chain: SGRGEAETRECIYYNANWELERTNQSGLERCEGEQDKRLHCYASWRNSSGTIELVKKGCWLDDFNCYDRQECVATEENPQVYFCCCEGNFCNERFTHLPEAGGPEVTYEPPPTAPT
notes: activin receptor type IIB (ActRIIB) extracellular domain, human, aa 19-134 of NP_001097.2; Chains linked by disulfide bonds between the Fc domains; a form with murine IgG2a Fc was used only in mice; also called ActRIIB-Fc homodimer; ActRIIB-Fc; not shown: Fc (human IgG1), C-terminal, kept
B3: IIB-Fc:ALK4-Fc heterodimer (human ActRIIB ECD-Fc paired with human ALK4 ECD-Fc) (Fc fusion)
chain 1: SGRGEAETRECIYYNANWELERTNQSGLERCEGEQDKRLHCYASWRNSSGTIELVKKGCWLDDFNCYDRQECVATEENPQVYFCCCEGNFCNERFTHLPEAGGPEVTYEPPPTAPT
chain 2: SGPRGVQALLCACTSCLQANYTCETDGACMVSIFNLDGMEHHVRTCIPKVELVPAGKPFYCLSSEDLRNTHCCYTDYCNRIDLRVPSGHLKEPEHPSMWGPVE
B4: IIB-Fc:ALK3-Fc heterodimer (human ActRIIB ECD-Fc paired with human ALK3 ECD-Fc) (Fc fusion)
chain 1: SGRGEAETRECIYYNANWELERTNQSGLERCEGEQDKRLHCYASWRNSSGTIELVKKGCWLDDFNCYDRQECVATEENPQVYFCCCEGNFCNERFTHLPEAGGPEVTYEPPPTAPT
chain 2: QNLDSMLHGTGMKSDSDQKKSENGVTLAPEDTLPFLKCYCSGHCPDDAINNTCITNGHCFAIIEEDDQGETTLASGCMKYEGSDFQCKDSPKAQLRRTIECCRTNLCNQYLQPTLPPVVIGPFFDGSIR
B5: IIB-Fc:ALK7-Fc heterodimer (human ActRIIB ECD-Fc paired with human ALK7 ECD-Fc) (Fc fusion)
chain 1: SGRGEAETRECIYYNANWELERTNQSGLERCEGEQDKRLHCYASWRNSSGTIELVKKGCWLDDFNCYDRQECVATEENPQVYFCCCEGNFCNERFTHLPEAGGPEVTYEPPPTAPT
chain 2: GLKCVCLLCDSSNFTCQTEGACWASVMLTNGKEQVIKSCVSLPELNAQVFCHSSNNVTKTECCFTDFCNNITLHLPTASPNAPKLGPME

Columns and labels:
activin A [1] = molecular target: T1, activin A; test: cell-based or functional assay
GDF11 [2] = molecular target: T2, GDF11; test: SPR; Biacore 8K, 37 °C; Fc-fusion receptor dimers captured by anti-human Fc antibody on a CM5 chip (100-150 RU); ligands injected in two-fold dilution series (300 s association, 600 s dissociation); HBS-EP+ supplemented with 350 mM NaCl and 0.5 mg/mL BSA; 1:1 Langmuir model with a term for mass transport; settings: both partners purified
activin A [3] = molecular target: T1, activin A; test: as above; settings: both partners purified
BMP7 = molecular target: T3, BMP7; test: SPR; same experiment as a1 (Biacore 8K, 37 °C, receptor dimers captured by anti-human Fc, HBS-EP+ with 350 mM NaCl added and 0.5 mg/mL BSA) but fitted with a bivalent analyte model (bold cells of Table 1); the first binding step is the one considered; settings: both partners purified
[4] = molecular target: T4, growth differentiation factor 8 (GDF8, …); test: cell-based or functional assay
GDF11 [5] = molecular target: T2, GDF11; test: cell-based or functional assay
BMP10 = molecular target: T5, BMP10; test: cell-based or functional assay
activin B = molecular target: T6, activin B; test: cell-based or functional assay
BMP9 = molecular target: T7, BMP9; test: cell-based or functional assay
BMP6 = molecular target: T8, BMP6; test: SPR; Biacore 8K, 37 °C; Fc-fusion receptor dimers captured by anti-human Fc antibody on a CM5 chip (100-150 RU); ligands injected in two-fold dilution series (300 s association, 600 s dissociation); HBS-EP+ supplemented with 350 mM NaCl and 0.5 mg/mL BSA; 1:1 Langmuir model with a term for mass transport; settings: both partners purified

Row | Binder | IC50 of the trap for inhibition of ligand-induced SMAD2/3 (CAGA12) luciferase reporter signalling in A204 cells (ligand with the cells' receptors) (activin A [1]) [nM] | Kd (GDF11 [2]) [nM] | koff (GDF11 [2]) [s⁻¹] | kon (GDF11 [2]) [M⁻¹ s⁻¹] | Kd (activin A [3]) [nM] | koff (activin A [3]) [s⁻¹] | kon (activin A [3]) [M⁻¹ s⁻¹] | Kd (BMP7) [nM] | koff (BMP7) [s⁻¹] | kon (BMP7) [M⁻¹ s⁻¹] | IC50 of the trap for inhibition of ligand-induced SMAD2/3 (CAGA12) luciferase reporter signalling in A204 cells (ligand with the cells' receptors) [4] [nM] | IC50 of the trap for inhibition of ligand-induced SMAD2/3 (CAGA12) luciferase reporter signalling in A204 cells (ligand with the cells' receptors) (GDF11 [5]) [nM] | IC50 of the trap for inhibition of ligand-induced SMAD1/5/8 (BRE) luciferase reporter signalling in T98G cells (ligand with the cells' receptors) (BMP10) [nM] | IC50 of the trap for inhibition of ligand-induced SMAD2/3 (CAGA12) luciferase reporter signalling in A204 cells (ligand with the cells' receptors) (activin B) [nM] | IC50 of the trap for inhibition of ligand-induced SMAD1/5/8 (BRE) luciferase reporter signalling in T98G cells (ligand with the cells' receptors) (BMP9) [nM] | Kd (BMP6) [nM] | koff (BMP6) [s⁻¹] | kon (BMP6) [M⁻¹ s⁻¹]
1 | B1 | > 100 | > 10 | > 0.01 | 500000 | > 10 | > 0.01 | 200000 | – | – | – | – | – | – | – | – | – | – | –
2 | B2 | 0.11 | – | – | – | – | – | – | > 10 | > 0.01 | 800000 | 0.76 | 0.09 | 0.03 | 0.06 | 0.57 | 0.348 | 0.00273 | 7.8e+06
3 | B3 | 0.19 | – | – | – | – | – | – | – | – | – | 2.04 | 0.34 | 0.7 | 0.16 | 8.47 | – | – | –
4 | B4 | 2.62 | – | – | – | – | – | – | – | – | – | 10.8 | 2.42 | 1.1 | 1.65 | 23.4 | – | – | –
5 | B5 | 2.86 | – | – | – | – | – | – | – | – | – | 9.15 | 2.34 | 2.01 | 0.26 | 31 | – | – | –
